Laboratory results taken from the nanobody polyreactivity screen of Harvey et al. (2022).

Assay: yeast display, Sf9 membrane polyspecificity reagent, FACS + sequencing; frameworks hold sequencing errors
How it was run: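 Sorting gates, low and high (top ~1%), were placed on anti-HA fluorescence to track expression and on streptavidin fluorescence to track reagent binding. A clone's polyreactivity label is taken from the gate it came out of. The reagent was 10% biotinylated, detergent-solubilized Sf9 membrane, applied for 1 hour at 4 °C to galactose-induced yeast display cells.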

Row | Sequence | polyreactivity (PSR sort gate)
1 | QVQLVESGGGLVQAGGSLRLSCAASGITFYFYAMGWSRQAPGKERELVSTISGGGSTSYADSVKGRFTISRDNAKNSVYLQMNSLKPEDTAVYYCAATGYSLRSGKRRPLRSGYYYWGQGTQVTVSW | high polyreactivity
2 | QVQLVESGGGLVQAGGSLRLSCAASGLILSSNAMGWYRKAPGQERELVAAITWDGDRTYADSVKGRFTISRDNAKNTVYLQMNSLKPEDTAVYYCAARIGTGVLTGRGANSHMDYWGQGTQVTVSS | low polyreactivity
3 | QVQHVESGGGLVQAGGSLRLSCAASGLIFSKNVMGWYRQARGKEREFVAAISQRGGSTYYADSVKGRFTISRDNAKNTVYVQMNSLKPEDTAVYYCAADNTVSHEDFWGQGTQVTVSS | high polyreactivity
4 | QVQLVESGGGLVQAGGSLRISCAPSGFIYSYAMGWYRQAPGKERELVASITLNGGSTYYADSVKGRFTISRDNAKNTVYLQMNSLKPEDTAVYYCNADRASLSIGGYYRLWYDYWGQGTQVTVSS | high polyreactivity
5 | QVQLVESGGGLVQAGGRLRLSCAASGSTIGKYVMGLYRQAPGKERELVAAITNIAGSTYYADSVKGRFTISRDTAKNTVYVQLNSLNPEDTAVYYCAADIEEYYGFDDYDYSYNDYDYWGQGTQVTVSS | high polyreactivity
6 | QVQLVESGGGLVQAGGSLRLSCAASGLIFPLYDMGWYIQAPGKDRELVAAITWGGGGTYYADSVKGRFTISRDNAKNTVYLQMNSLKPEDTAVYYCNADSDIAAPLRTYITFDYWGQGTQVTVSS | low polyreactivity
7 | QVQLVESGGGLVQAGGSLRLSCAASGRTFAVNAMGWYRQAPGTERELVAAISLSGGRTYYADSVKGRFTISRDNAKNTVSLQMNSLKPEDTAVYYCAASRHFARHRGYYFRYDYWGQGTQVTVSS | high polyreactivity
8 | QVQLVESGGGLVQAGGSLRLSCAASGFIFASYAMGWYRQAPGKERELVAAISSSGGRTYYADSVKGRFTISRDNAKNTVYLQMNSLKPEDTAVYYCAADWRVTYDYWGQGTQVTVSS | high polyreactivity
9 | QVQLVESGVGLVQAGGSLLLICAASGRIFGANAMGLYRQAPGKERELVAAISRTGGSTNYADSVKGRFTISRDNAINTVFLQMYSLKPEDTAVYYCNAVYRYAHPMEYWGQGTQVTVSS | high polyreactivity
10 | QVQLVESGGGLVQAGGSLRLSCAASGNIFTFNAMGWYRQAPGKERELVAAIRSGGSTNYADSVKGRFTISRDNAKNTVYLQMNSLIPEDTAVYYCAAKRYVQGYVYRFGYWGQGTQVTVSS | high polyreactivity
11 | QVQLVESGGGLVQAGGSLRLSCAASGRTLYIYAMGWYRQAPGKERELVAAITRRGDSTYYADSVKGRFTISRDNAKNTVYLQMNSLKPVDTAVYYCAADFPDTSSQYDPAYEYWGQGTQVTVSS | low polyreactivity
12 | QVQLVESGGGLVQAGGTLRLSCAASGSIFPRYGMGWYRHAPGKERELVAAISGSGGSTYYADSVKGRFTISRDNAKNTVYLQMNSLKPEDTAVYYCNKLRRRVNRDIDDYWGQRTQVTVSS | high polyreactivity
13 | QVQLVESGGGLVQAGGSLRLSCAASGLTFVDNAMGWYRQAPGKERELVAAISYNGGSTYYADSVMGRFTISRDNAKNTVYLLMNSLKPEDTAVYYCAADISVGRYGDMDYWGQGTQVTVSS | low polyreactivity
14 | QVQLVESGGGLVQAGGSLRLSCAASGSIFGWNTMGWYRQAPGKERELVASISRRGGSTHYADSVKGRFTISRDNAKNTVYLQMNSLKPEDTAVYYCAKVRYQGNGGYYWGQGTQVTVSS | high polyreactivity
15 | QVQLVESGGGLVQAGGSLRLSCAASGSIFYLNARGWYRQAPGKERELVASINRGGITYYADSVKGRFTISRDNAKNTVYLQMNSLKPEDTAVYYCAARSPYVSYRSNYYYWGQGTQVTVSS | high polyreactivity
16 | QVQLVESGGGLVQAGGSLRLSCAASGNIFVPSAMGWYRQEPGKERELVAAINVGGSTNYADSLNGRFTNSRDNPKNTVYLQMNSVKPEDTAVNYFGAVWYFLSLWYDYWGHGTQVTVSS | high polyreactivity
17 | QVQLVESGGGLVQAGGSLRFSCAASGRTIWTYVMGWYRQAPGKERELVAAISRSGSSTYYADSVKGRFTISRDNAKNTVYLQMNSLKPEDTAVYYCNKVDGTTLDDHYMDYWGQGTQVTVAS | low polyreactivity
18 | QVQLVESGGGLVQAGGSLRLSCADSGYTFVYNAMGWYRQPPGKEREFVAAITWSGTSTRYADSVKGRFTISRDNAKNTVYLQMNSLKPEDTAVYYCAALGSGVPRYYYWGQGTQVTVSS | high polyreactivity
19 | QVHLVESGGGLVQAGGSIRLSCAASGLIFYPYAMGWYRKAHGKEREFVAAITWSGGSTRYADSVKGRFTISLDNAKNTVYLQMNSLKPEDTAVYYCAARYIWWYDYTYTGLDYWGQGTQVSVSS | high polyreactivity
20 | QVQLVESGGGLVQAGGSLRLSCAASGRTFGLYAMRWYRQAPGKERELVAAISIRGGATYYAVSVKGRFTISRDNAKNTVYLQMNSLKPEDSAVYYCNKGPGRWYYWGQVTQVTVSS | low polyreactivity
21 | QVQLVESGGGLVQAGGSLRLSCAASGSIIHYTMGWYRQAPGKERELVAAISKSGGSTYYADSVKGRFTISRDNAKNTVYLQMNSLKPEDTAVYYCAAVGYYAWTFGYDYWGQGTQVTVSS | high polyreactivity
22 | QVQLVESGGGLVQAGGSLRLSCAASGRIFFGYAMGWYRLAPGKERELVAAISYGGGRTYYADSVKGRFTISRDNAKNTVSLQMNSLKPEDTAVDYCNKRVTGGSWSPGHYRYNYWGQGSQVTVSS | high polyreactivity

Row | Sequence | polyreactivity (PSR sort gate)
23 | QVQLVESGGGLVQAGGSLRLSCAASGRTFNPYTMGWYRQAPGKEREFVATIRKSSGGTYYADSVKGRFTISRDTAKNTVYLQMNSLKPEDTAVYYCAAVGNGGMDYWGQGTQVTVSS | low polyreactivity
24 | QVQLVESGGGLVQAGGSLRLSCAASGSTFAPNTMGWYRQAPGKERELVARITTSDGSTTYADSVKGRFTISRDYAKNTVFFQMNILNPEDTAVYYCARDNTFCTWPSSLYDYWGQGTQVTVSS | low polyreactivity
25 | QVQLVESGGGLVQAGGSLRLSCAASGSTFTYYDMGWYRQAPGKERELVATIDSTTRTYYADSVKGRFTISRDNAKNTVYLQMNSLKPEDTAVYYCAADLTWAYFYYLFYRYDYWGQGTQVTVSS | low polyreactivity
26 | QVQLVESGGGLVQAGGSLRLIFAASGSIFPDYAMGWYITAPGKERELVAAISRSGGRTSYADSVKGRFTISRDNAKNTVFLQMNSLKPEDTAVYYCNVASRQGSTYDYWGQGTQVTVSS | high polyreactivity
27 | QVQLVESGGGLVQAGGSLRLSCAASGSNLYKYAMGWYRPAPGKERELVASITWSDGNTNYADSVKGRFTISRHNAKNTVYLQMNSLKPEDTAVYYCAADWRYILRGDDYWGQGTQVTVSS | low polyreactivity
28 | QVQLVESGGGLVQAGGSLRLSCAASGSTFFPNAMGWYRQAPGKERELVAAIRWRGGTYYADSVKVRFTISRDNAKNTVYLQMNSLKPEDTAVYYCATSVKPSYDYWGQGTQVTVSS | low polyreactivity
29 | QVQLVESGGGLVQAGGSLRLSCSASGSTFESNAMGWYRQAPGKERELVASISGSGGSTFYADSVKGRFTISRDNAKNTVYLQMISLKPEDTAVYYCAAYKEPYYEEYGYWGQGTQVTVSS | low polyreactivity
30 | QVQLVESGGGLVQAGGSLRLSCAASGRIFGVNAMGGYRQAPGKERELVAAIFSGGSTYYADSVKGRFTISRDNAKNTVYLQMNSLKPEDTAVYYCAKLYTVAIVWSAYDYWGQGTQVTVSS | low polyreactivity
31 | QVQLVESGGGLVQAGGSLRLSCAASGFIIYGYVMGWYRQAPGKERELVAAINSSSGRTYYADSVKGRFTISRDNAKNTVYLQMNSLKPEDTAVYYCAAYYYGSYDGTPYDYWGQGTQVTVSS | low polyreactivity
32 | QVQLVESGGGLVQAGGSLRLSCAASGSTFDFNAMGWYRQAPWKEMELVADITRDGSTNYADSVKGRFTISRDNAKNTVYLQMNSLNPEDTAVYYCNAANRPGISGITTQGYYWGQGTQVTVSA | low polyreactivity
33 | QVQLVESGGGLVQAGGTLRLSCAASGSTFAANAMGCSRQAPGKERELVAGISESGDRTYADSVKGRFTISRDNAKNTVYLQMNSQKPEETAVYYCNVGANVYLLYFPSRGGVYDYGYWGHGTQVTVSS | low polyreactivity
34 | QVQLVESGGGLVQAGGSLRLSCAASGSTFTVNGMGWYRQATGKESELVAAIDGGDGSTYYADSVKGRFTISRDNAKNTVYLQMNSLKPEDTAVYYCAADPPGFTQYGYWGQGTQVTVSS | low polyreactivity
35 | QVQLVESGGGLVQAGGSLRLSCAASGFIFTLYAMGWYRKAPGKEREFVAAISWSDGSTTYADSVKGRFTISRDNAKNTVYLQMNSLKPEDTAVYYCNTSYIIWYDSWGQGTQVTVSS | low polyreactivity
36 | QVQLVESGGGLVQAGGSLRLSCAASGSIFGEYTMGWYRQAPGKERELVAAISWNGGITYYADSVKGRFTISRDNAKNTVYLQMNSLKPEDTAVYYCAAETYPWSLFTYYSWGQGSQVTVSS | low polyreactivity
37 | QVQLVESGGGLVQAGASLRLSCAASGSTYVRNAMGWYRQAPGKERELVAAITSGGNTYADSVKGRFTISRDNAKNTVYLQMNSLKPEDTAVYYSAAANEFGDVWAQFDYWGQGTQVTVSS | low polyreactivity
38 | QVQLVESGGGLVQAGGSLRLSCAASGSIFYPYAMGWYRQAPGKERELVATISSGGRTNYADSVKGRFTISRDNAKNTVYLQMNSLKPEDTAVYYCAKDRYPTSWWFRRRDYWGQGTQVTVSS | high polyreactivity
39 | QVQLVESGGGLVQAGGSLRLSCAASGFTFHLYAMGWYRQAPRKERELVAAISQSGDSTYYADTVKGRFTISRDNAKNTFYLQMNSLKPEDTAVYYFNADNDCVVWTYPFDFDYWGQGTQVTVSS | low polyreactivity
40 | QVQLVESGGGLVQAGGSLRLSCAAYGRIFSSYAMGWYRQAPGKERELVAAISSSGGRTYYADSVKGRFTISRDNAKNTVYLQMNRLKPEDTAVYYFARVTTGGYEYWGQGSQVTVSS | high polyreactivity
41 | QVQLVESGGGLVQAGGSLRLSCAASGSTFGWYAMGWYRQAPGKERELVASISRSGGRTFYADSVKGRFTISRDNAKNTVYLQMNRLKPEDTAVYYCAADALIYYKGSPDYYWGQGTQVNVSS | high polyreactivity
42 | QVQLVESGGGLVQAGGSLRLISAASGFTFAWYTMGWYRQAPGKERELVAAITDSGDSTYYADSVKGRFTISRDNAKNTVYLQMNSLKPEDTAVYYCATRSWYWDIWITEYDYWGQGTQVTVSS | low polyreactivity
43 | QVQLVESGGGLVQAGGSLRLSCAASGFIFLRYVMGWYRQAPGKERELVAVITGTGVRTYADSVKGRFTISRDNAKNTVYLQMTSLKPEDTAVYYCAVVSSSREVEVLDFDYWGLGTQVTVSS | low polyreactivity
